The values that follow come from patent US20200283741.

Numbering of substitutions follows the chain as printed. In names and notes the source's numbering stands.

Sequences and labels used below:
T1: HbA1c-type αF8P (α-fructosyl-valyl-histidyl-leucyl-threonyl-prolyl-glutamyl-glutamyl-lysine)
T1 chain: VHLTPEEK

T2: HbC1c-type αF8P
T2 chain: VHLTPKEK

T3: HbS1c-type αF8P
T3 chain: VHLTPVEK

B1: CFP-T7-H40-3M (protein)
chain: MTSNRADTRVIVVGGGGTIGSSTALHLVRSGYAPANITVLDTFEIPSAQSAGHDLNKIMGIDHGNKVNLQMSLEARQMWKEDELFQPFFHNTGRMDCESTPKGIEKLKKYYQKLHDAGAGLEKTHAWLDNEDEILSKMPLLQRDQIQGWKAIWSQDGGWLAAAKAINAIGQFLKERGVKFGFGGAGSFKQPLFDDEGTTCIGVETADGTKYYADKVVLAAGAWSPTLVDLEDQCCSKAWVYAHIQLTPEEAAEYKGVPVVYNSEYGFFFEPDEFGVIKVCNEFPGFSRFKEHQPYGAPSPKRISVPRSHAKHPTDTYPDASEVSIKKAIATFLPRFQDKELFNRALCWCTDTADSTLLMCEHPKWKNFILATGDSGHSFKILPNVGKYVVELIEGRLPEEMAYQWRWRPGGDALKSRRAAPPKDLADMPGWKHDPKL
B2: CFP-T7-H40-3M K102A (protein)
chain: B1 chain with K102A
B3: CFP-T7-H40-3M K113A (protein)
chain: B1 chain with K113A
B4: CFP-T7-H40-3M K102E (protein)
chain: B1 chain with K102E
B5: CFP-T7-H40-3M K106D (protein)
chain: B1 chain with K106D
B6: CFP-T7-H40-3M K113E (protein)
chain: B1 chain with K113E
B7: CFP-T7-H40-3M K106A (protein)
chain: B1 chain with K106A
B8: En42FX R108L (protein)
chain: MAPRANTKIIVVGGGGTMGSSTALHLLRAGYTPSNITVLDTYPIPSAQSAGYDLNKIFGISGANKHDLQLSLEAFDMWKNDPLFKPFFHNVGQMDVSSTEEGIKRLRLRYQSLLRAGIGLEKTNFLLESEDEILAKAPHFTREQIKGWKGLFCGDGGWLAAAKAINAIGQFLKEQGVKFGFGEAGTFKKPLFADADEKTCIGVETVDGTKYYADKVVLAAGAWSSTLVDLEEQCVSKAWVFAHIQLTPAEAAAYKNTPVIYDGDYGFFIEPDENGIIKVCDEFPGFTHFKMHQPYGSPVPKLISVPRSHAKHPTDTYPHASEVTIKKAINRFLPRFNDKELFNRAMCWCTDTADSNLLVCEHPRWKGFYLATGDSGHSFKLLPNIGKHVVELLEGRLESVFKDAWRWRPGSGDALKSRRAAPAKDLADMPGWRNEAKM
B9: En42FX R105D (protein)
chain: B8 chain with R105D, L108R
B10: En42FX R105S (protein)
chain: B8 chain with R105S, L108R
B11: En42FX R105L (protein)
chain: B8 chain with R105L, L108R
B12: En42FX R108Q (protein)
chain: B8 chain with L108Q
B13: En42FX R108E (protein)
chain: B8 chain with L108E
B14: En42FX S112E (protein)
chain: B8 chain with L108R, S112E
B15: En42FX S112D (protein)
chain: B8 chain with L108R, S112D
B16: En42FX R108D (protein)
chain: B8 chain with L108D

The target in the first data set is T1, HbA1c-type αF8P ….
B1 yielded a relative activity on substrate (reference, designated as 100%) of 100%.
The same measure, in the same setting: the figure for B2 is 100%.
As to B3, the relative activity on substrate (reference, designated as 100%) was 100% and the “specific activity on substrate” value is “at least 20 mU/mg”.
On to B4, for which the relative activity on substrate (reference, designated as 100%) turned out to be 100%.
In the case of B5, the relative activity on substrate (reference, designated as 100%) was determined as 100% and the “specific activity on substrate” value is reported as “at least 20 mU/mg”.
For B6, the relative activity on substrate (reference, designated as 100%) was determined as 100% and the “specific activity on substrate” value is recorded as “at least 20 mU/mg”.
For B7 the same measures were 100% and “at least 20 mU/mg”.
On to B8, for which the relative activity on substrate (reference, designated as 100%) turned out to be 100%.
On the same count and under the same terms, the figure for B9 is 100%.
The protein B10 had a relative activity on substrate (reference, designated as 100%) of 100%.
As for B11, the relative activity on substrate (reference, designated as 100%) worked out at 100%.
On the same count and under the same terms, the value for B12 was 100%; that for B13 was 100%; that for B14 was 100%.
As for B15, the relative activity on substrate (reference, designated as 100%) is 100%.
Still for that read-out and setting: the value for B16 was 100%.

A further data set deals with T2, HbC1c-type αF8P.
Take B1: the relative activity on substrate (activity on HbA1c-type αF8P = 100%) came out at 11%.
As to B3, the relative activity on substrate (activity on HbA1c-type αF8P = 100%) is 38% and the “specific activity on substrate” value is given as “at least 20 mU/mg”.
For B5 the same measures were 48% and “at least 20 mU/mg”.
For B6 the same measures were 91% and “at least 20 mU/mg”.
With B7, the “relative activity (HbC1c/HbA1c), fold over H40-3M before modification” value is given as “improved by about 2.8 to 9.4 times”; the relative activity on substrate (activity on HbA1c-type αF8P = 100%) was determined as 31%; the “specific activity on substrate” value is on record as “at least 20 mU/mg”.
For the protein B8, the relative activity on substrate (activity on HbA1c-type αF8P = 100%) worked out at 13%.
Take B9: the “relative activity (HbC1c/HbA1c), fold over En42FX before modification” value is given as “improved by about 1.1 to 10.8 times” and the relative activity on substrate (activity on HbA1c-type αF8P = 100%) worked out at 86%.
As to B10, the relative activity on substrate (activity on HbA1c-type αF8P = 100%) came out at 13%.
On to B11, for which the “relative activity (HbC1c/HbA1c), fold over En42FX before modification” value is listed as “improved by about 1.1 to 10.8 times” and the relative activity on substrate (activity on HbA1c-type αF8P = 100%) is 9%.
Turning to B12, the relative activity on substrate (activity on HbA1c-type αF8P = 100%) amounted to 15%.
For the protein B13, the relative activity on substrate (activity on HbA1c-type αF8P = 100%) was determined as 31%.
Turning to B14, the relative activity on substrate (activity on HbA1c-type αF8P = 100%) stood at 41%.
For B15, the relative activity on substrate (activity on HbA1c-type αF8P = 100%) was 16%.
Same read-out and setting: the figure for B16 is 23%.

The target in a further data set is T3, HbS1c-type αF8P.
Consider B1, for which the relative activity on substrate (activity on HbA1c-type αF8P = 100%) is 39%.
For the protein B2, the “relative activity (HbS1c/HbA1c), fold over H40-3M before modification” value was “about 1.97 times greater than that prior to modification” and the relative activity on substrate (activity on HbA1c-type αF8P = 100%) was 77%.
As for B3, the relative activity on substrate (activity on HbA1c-type αF8P = 100%) stood at 104% and the “specific activity on substrate” value is on record as “at least 20 mU/mg”.
For B4, the “relative activity (HbS1c/HbA1c), fold over H40-3M before modification” value is “about 1.74 times greater than that prior to modification” and the relative activity on substrate (activity on HbA1c-type αF8P = 100%) turned out to be 68%.
For B5, the relative activity on substrate (activity on HbA1c-type αF8P = 100%) was found to be 83% and the “specific activity on substrate” value was “at least 20 mU/mg”.
In the case of B6, the relative activity on substrate (activity on HbA1c-type αF8P = 100%) was determined as 97% and the “specific activity on substrate” value was “at least 20 mU/mg”.
In the case of B7, the “relative activity (HbS1c/HbA1c), fold over H40-3M before modification” value was “improved by about 2.1 to 3.3 times”; the relative activity on substrate (activity on HbA1c-type αF8P = 100%) came out at 81%; the “specific activity on substrate” value is listed as “at least 20 mU/mg”.
Regarding B8, the “relative activity (HbS1c/HbA1c), fold over En42FX before modification” value was “improved by about 1.4 to 3.7 times” and the relative activity on substrate (activity on HbA1c-type αF8P = 100%) amounted to 150%.
With B9, the relative activity on substrate (activity on HbA1c-type αF8P = 100%) came out at 114%.
B10: the “relative activity (HbS1c/HbA1c), fold over En42FX before modification” value is on record as “improved by about 1.4 to 3.7 times” and the relative activity on substrate (activity on HbA1c-type αF8P = 100%) amounted to 56%.
With B11, the relative activity on substrate (activity on HbA1c-type αF8P = 100%) worked out at 64%.
For the protein B12, the relative activity on substrate (activity on HbA1c-type αF8P = 100%) turned out to be 67%.
For the protein B13, the relative activity on substrate (activity on HbA1c-type αF8P = 100%) is 100%.
For B14, the relative activity on substrate (activity on HbA1c-type αF8P = 100%) is 82%.
Same read-out and setting: the figure for B15 is 63%; for B16 it is 95%.
